Data as given in the supplement of paper PMC9170038.

Tested on: K4 kissing-loop RNA reporter
Assay: apparent KD of K4 kissing-loop reporter; higher = weaker reporter binding
Details: Eterna round: R107
Description: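 RNA-MaP round R107: designed RNA switches with theophylline, tryptophan, arginine or FMN aptamers are transcribed on-chip within common flanks. They are titrated with a labelled K4 kissing-loop RNA reporter in RNA-MaP buffer (100 mM Tris pH 7.5, 80 mM KCl, 4 mM MgCl2), without ligand or with the indicated ligand. Median apparent KD per design.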

[1] = input ligand: theophylline 20 uM
[2] = input ligand: tryptophan 2.4 mM
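Further: bound reporter read as fluorescence of individual clusters on recovered sequencing chips by microscopy, with normalized cluster intensities fitted with a binding model.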

Row | Sequence | apparent KD of K4 kissing-loop reporter (input ligand: FMN 200 uM) | apparent KD of K4 kissing-loop reporter (input ligand: arginine 13.2 mM) | apparent KD of K4 kissing-loop reporter (input ligand: none) | apparent KD of K4 kissing-loop reporter [1] | apparent KD of K4 kissing-loop reporter [2]
1 | UGGUUAAGCAGUGAUGUUGCAAGUAAUGAUACCAGUUAAGAAGAGAACCCUUGGCAGCAUAAAGUGCGCUCUGAUGAGUGUGCUU [whbob_SS_Theo_A_w54] | 197 nM | 218 nM | 240 nM | 239 nM | 179 nM
2 | AAUAAGUGUCAGCGAGUGAUGUUCGACGAUACCAGCCUCGAUAGAGGCCCUUGGCAGCGUAACGCAUGCCAAACUGGCACAAUAA [#SwitchBubble 7 #K4Early] | 500 nM | 497 nM | 557 nM | 393 nM | 441 nM
3 | AAAUAUUCGAGUGAUGUUCGUUAAAUUACAGAGGAUAUGCUUAAAAGCAGAAGGCUGUAUUUCUAUUUGUUAUGUAAUUUUAAAA [JR_ExcFMNA_Sub004] | 117 nM | 209 nM | 157 nM | 196 nM | 115 nM
4 | GACGGGUUCCUGCUCAAUCCGUCGCAUGAUCGAGGACCGGUACGGCCGCCACUCGAGGCCAUGCCGUACGAGUGAUGUUCGUGCG [Xeon] | 438 nM | 367 nM | 403 nM | 380 nM | 200 nM
5 | GUUACGCAUGGAAGGAGCGCAGGCUCAACUUGAAGCUCAGUGAUGUUGAGCAAAUUAAAACUGCAGGUAGGUCGCCAUGUGUAAC [Ex Arginine B K4 27] | 548 nM | 474 nM | 655 nM | 644 nM | 448 nM
6 | GGCACGGUGACGCGGCUGCCGUGCGCUUGGGAGGAUAUGUUUCGUGACAGAAGGCCCAGUGAUGUUGGGUCUGUUCAAAAGGACU [Edmatianri] | 339 nM | 104 nM | 125 nM | 121 nM | 104 nM
7 | AGGUGCUACGGAAGGAGCGCACCAGUGAUGUUGGUGUGUGACCGUGACAUGGCAGUCAAGGUGCAGGUAGGUCGCCGUGGCCAUA [Rigela] | 138 nM | 135 nM | 140 nM | 156 nM | 136 nM
8 | CCUAUCUCAUACGAUACCAGUCGUCGAGUGAUGUUCGAUUAAAUAUAUUUGCCAAAUAACGACCCUUGGCAGCGUAUGGGAUAGG [Ex Theophylline B K4 17] | 367 nM | 328 nM | 340 nM | 417 nM | 314 nM
9 | GAUUUAGAGGCGGCCGCCACUAGUGAUGUUAGUGAUGUUUGAUACUGUAUAUAUCGGCGUGUAGAUAGGACCGGGCCUGAUGGAG [drrdmullin] | 259 nM | 176 nM | 266 nM | 210 nM | 196 nM
10 | UGCAUGCUUGGAGUGAUGUUCCAAGAUGAUACCAGUGCUUUUUUGCACCCUUGGCAGCGUCUGAUUGCAUGCACGUCGAAAGACG | 531 nM | 471 nM | 529 nM | 490 nM | 517 nM
11 | UGAUACCAGACGGCCGCCACUGGUGCAUGUCAAAGACAUGCUAACCAAAUCGUGGAGUGAUGUUCCAGGACCGGGUCUGGUAUCU [TrypBX 22 #SwitchBubble #Palindromic #StaticStem] | 235 nM | 207 nM | 217 nM | 239 nM | 570 nM
12 | UGUGAGCUGUCGACAAAAGUCGACUAAAACGAGGAUAUGACGAAAGUCAGAAGGCGUCAAUAAUGGAGUGAUGUUCCUGCUCACU [FmnA 9 #SwitchBubble #K4Late] | 256 nM | 404 nM | 552 nM | 453 nM | 401 nM
13 | AGACUACCACACUGUCAAUAGACAGUGAACUCGGAUAUGCUGAUAAGCAGAAGGAGUGAUGUUCCCAGGUAGUCAAUAAAAUAAU [FmnAX 13 C32+C66] | 135 nM | 111 nM | 144 nM | 233 nM | 142 nM
14 | AGAGUUAUGCGAGGAUAUGCGGUUAGUACUCAAAGAGUACUAACGCAGAGUGAUGUUCUGUGAAACGCAGAAGGUGCAUAACUCA [Omei KL FMN B SS B v3] | 153 nM | 216 nM | 280 nM | 238 nM | 229 nM
15 | AAGACUGCAGGAAGGAGCGGCGGACGGAGUGAUGUUCCGGCUAGUGAUGUUAGCAAACACCGCCAGGUAGGUCGCCUGUUGCUCU [Same State Arginine B GF7] | 113 nM | 116 nM | 126 nM | 166 nM | 128 nM
16 | CUGGGUUGACGAAAAGUCAACAAAUGAGAAGGAGCGCACGAAAGUGCAGGUAGGUCGCUCAGUCCAGUGAUGUUGGAUCAUCCAG [#SwitchBubble 10 #K4Late] | 461 nM | 602 nM | 578 nM | 480 nM | 361 nM
17 | AAUUGGGACGAAGGAUAUUGUCGGCCAUGUACGAGGUCCGGAUGUCAUGACUGUUAGUGAUGUUAACAAGAAGGUCGAGGGAGAC [theeternabot_exclusion_KL_FMN_B_25] | 87 nM | 107 nM | 103 nM | 119 nM | 86.3 nM
18 | GCCGUACGCAUGGAUACCAGCAGAACUGCCCUCCCAGUGAUGUUGGGAGGAUCUUUCCUUUGCCCUUGGCAGCCAUGCGUACGGC | 126 nM | 112 nM | 124 nM | 84.8 nM | 117 nM
19 | UCUGGUAUAUCUGAUACCAGAGUAUAGUAUCAAUUGCAUAUGGAGUGAUGUUCCAUACAACUCCCUUGGCAGCAGAUCUAUCUCU [Same State Theophylline B GF 24] | 219 nM | 249 nM | 246 nM | 286 nM | 195 nM
20 | UUGAGUGAUGUUCAAUUAAUGUGCAACGAUACCAGCUCAUAUGCUAGCCCUUGGCAGCGUGGUAACGUAAUUUUAUCAAAUGAUA [theeternabot_exclusion_KL_Theo_A_39] | 232 nM | 199 nM | 198 nM | 205 nM | 145 nM
21 | CGCGUAUCGGCAGGAUAUGGAGUUGAGUGAUGUUCAGCAAUGGGUCAUCAUCUUUAUGACAAUCCACCAGAAGGGCCGAUACGCG | 622 nM | 632 nM | 1100 nM | 944 nM | 812 nM

Row | Sequence | apparent KD of K4 kissing-loop reporter (input ligand: FMN 200 uM) | apparent KD of K4 kissing-loop reporter (input ligand: arginine 13.2 mM) | apparent KD of K4 kissing-loop reporter (input ligand: none) | apparent KD of K4 kissing-loop reporter [1] | apparent KD of K4 kissing-loop reporter [2]
22 | CGAGUCAAUUCAGAUACCAGCCAAUUAAAGUCGAGUGAUGUUCGACAAUGAACAUCCAAAGGCCCUUGGCAGCUGAAUUGGGAAC [Same State Theophylline B GF 18] | 144 nM | 87.3 nM | 114 nM | 228 nM | 83.4 nM
23 | GGAGGCUAUGCAGGAUAUAGUCGGUUGAGUGAUGUUUAACGACUAAACCUUCUAAGUCACAGCCCGCUAGAAGGGCAUAGCCUCC | 427 nM | 225 nM | 258 nM | 229 nM | 266 nM
24 | GAUGAAGAGUCGUUAGUUAGGGCUUUCGAUACCAGCGCCCGUCCACGCCCUUGGCAGCGAUUGAAAGAGUGAUGUUCUGUCAGGA [theeternabot_exclusion_KL_Theo_A_31] | 578 nM | 309 nM | 546 nM | 741 nM | 289 nM
25 | AUGGUUGUCGUAGGAUAUGUAGGUAAUUCCUAUAGCAGUGAUGUUGCUAAUAUCUUGGAAGAAGGAACAGAAGGACGAUAACCAC [KL-SSFMN-B1 #analogue] | 123 nM | 109 nM | 124 nM | 109 nM | 106 nM
26 | UGUACCGAGUUAGGAUAUGUCGUCGAAAGACGAAAUGGAGUGAUGUUCCUUAAACUGCGAAAGCAGACAGAAGGGAUUUGGUACU [FmnBS 29 U11+U77] | 331 nM | 442 nM | 412 nM | 510 nM | 378 nM
27 | UUUCUUUUUUUGAUGUUUUUUGUAUAAUGGCAGGAUAUCGUAGAUGCGAGAAGGGCUUUUAUGCGUUAUGAGUGAUGUUUGUAGG [aaxazvmullin] | 324 nM | 270 nM | 320 nM | 272 nM | 256 nM
28 | AGGCAAUAUGCGGCCGCCACUUUCAGUGAUGUUGAGACGCGGAAUGUUGUAUAAUAUCGCCACGAAAGGACCGGGCAAGGGAAAG [theeternabot_exclusion_KL_Trp_B_5] | 691 nM | 434 nM | 542 nM | 423 nM | 355 nM
29 | AAAGAGUCACUCGAAGCUAUCGAAGAUAGGCGAGGACCGGUACGGCCGCCACUCGGAGUGAUGUUCCGAAGACUGUAAAAUAAAA [MatMod 12 - Jieux - Exclusion - Tryptophan A] | 208 nM | 240 nM | 206 nM | 170 nM | 295 nM
30 | CCAUCGCUAUUCGAUACCAGUCUACGUAGGAAACUACGUCUGCAAAGGAGUGAUGUUCCAGACCCUUGGCAGCGAAUAGUGAUGG [Theophylline B K4 5] | 969 nM | 689 nM | 792 nM | 589 nM | 900 nM
31 | AAACGUUGGUGCGAUACCAGCUUGAUCGGUAAACGAUCUACUGGAGUGAUGUUCCUAAAUAGCCCUUGGCAGCGCACCGACGAAA [MAT - Same State Theophlline B - Mod of Eli - D8] | 181 nM | 155 nM | 169 nM | 128 nM | 166 nM
32 | CCUUGAGAGUGAUGUUCUCGAGUGAAAGUCAAGGAUAUCCCGCGGUGGAGAAGGUGAUGGCGAACUUGACUGCUGUCAGUCCUAA [theeternabot_exclusion_KL_FMN_A_10] | 104 nM | 105 nM | 121 nM | 109 nM | 110 nM
33 | UCUGUACCGGGAAGGAGCGUGAAUGAGAAUGGAUAUAGUGAUGUUAUGUAUACGAACGAAUCGCAGGUAGGUCGCCCGGAUCCCU [SSArgB.aA] | 674 nM | 380 nM | 653 nM | 474 nM | 467 nM
34 | UGUGGAGAAUAUGAUACCAGCAGUGAGAGAGAGGAAGUAUAGUGAUGUUAUAUGAGAGAAUGCCCUUGGCAGCAUAUGUAGUAGG [SSTheophylB.G] | 209 nM | 162 nM | 207 nM | 208 nM | 188 nM
35 | AUCGAUAUCAGAGGAUAUGCUUAAUUGAUUUAUUAUUAUUUAUUAUGCAGUGAUGUUGCAUUUUUUGCAGAAGGCUGAUUUCGAA [JR_SSFMNB_Sub022] | 112 nM | 150 nM | 126 nM | 137 nM | 117 nM
36 | AAGUGUGUGGCGGCCGCCACUAGAAUCCAGUGAUGUUGGAGAUAUCACGUAAGUGAUAUCCAACAUAGGACCGGGCCAUAUAGAA [Same State - Tryptophan B (Freestyle 12)] | 142 nM | 111 nM | 80.3 nM | 210 nM | 95.5 nM
37 | CGAGUGAUGUUCGUUUAUUACUCUGUUUGACAGGAUAUGCGGAAACGCAGAAGGGUCACCUUUGAGUUAGACGGAGUUAUUUUUU [Ex FMN A 22] | 539 nM | 359 nM | 407 nM | 355 nM | 323 nM
38 | UGUCAUGGAAACAUGAACGUUGAUGUUCGACGAGGACCGGUACGGCCGCCACUCGAGUAAUAGUCAGUGAUGUUGACUGGGCUAA [KL-SSTryp-A form1 sub2] | 146 nM | 216 nM | 219 nM | 250 nM | 140 nM
39 | CUGAGCCUGACGUAAGUCAGGCUCUGCGAGCGAGGACCGGUACGGCCGCCACUCGGUGCAGUGAUGUUGCAUGGCCGCAAGGCCG [#2 Exclusion - Tryptophan A Attempt #19 (HarryS)] | 293 nM | 246 nM | 234 nM | 254 nM | 345 nM
40 | GCCAGAUAGACGGCCGCCACUUAUAAGUUUCAGUGAUGUUGGAACGGCAAAUGCCGAACACAAUAGAGGACCGGGUCAACUGGCG [Same State Tryptophan B GF 1] | 920 nM | 591 nM | 835 nM | 901 nM | 639 nM
41 | GAUUCUGUUCGAAAGAACGGAAUCACGGAAGGAGCGAGAGAAAUCUCAGGUAGGUCGCCGAAUUUUAGAUAGUGAUGUUAUCAUU [Arginine A K4 1] | 820 nM | 724 nM | 1080 nM | 856 nM | 711 nM
42 | GUGCGCGGUGCGGCCGCCACUCGGAUGCGAGUGAUGUUCGCGGGACGGACGCAAGUCCGUCAUUCGAGGACCGGGCAUGGCUGCA [#2 Same State - Tryptophan B Attempt #6 (HarryS)] | 197 nM | 196 nM | 242 nM | 183 nM | 137 nM
